Experimental data published in article PMC5971111 (Nature structural & molecular biology, 2018).

Molecular target: T1, Sec15 (S. cerevisiae, UniProt P22224 1-910)
T1 sequence: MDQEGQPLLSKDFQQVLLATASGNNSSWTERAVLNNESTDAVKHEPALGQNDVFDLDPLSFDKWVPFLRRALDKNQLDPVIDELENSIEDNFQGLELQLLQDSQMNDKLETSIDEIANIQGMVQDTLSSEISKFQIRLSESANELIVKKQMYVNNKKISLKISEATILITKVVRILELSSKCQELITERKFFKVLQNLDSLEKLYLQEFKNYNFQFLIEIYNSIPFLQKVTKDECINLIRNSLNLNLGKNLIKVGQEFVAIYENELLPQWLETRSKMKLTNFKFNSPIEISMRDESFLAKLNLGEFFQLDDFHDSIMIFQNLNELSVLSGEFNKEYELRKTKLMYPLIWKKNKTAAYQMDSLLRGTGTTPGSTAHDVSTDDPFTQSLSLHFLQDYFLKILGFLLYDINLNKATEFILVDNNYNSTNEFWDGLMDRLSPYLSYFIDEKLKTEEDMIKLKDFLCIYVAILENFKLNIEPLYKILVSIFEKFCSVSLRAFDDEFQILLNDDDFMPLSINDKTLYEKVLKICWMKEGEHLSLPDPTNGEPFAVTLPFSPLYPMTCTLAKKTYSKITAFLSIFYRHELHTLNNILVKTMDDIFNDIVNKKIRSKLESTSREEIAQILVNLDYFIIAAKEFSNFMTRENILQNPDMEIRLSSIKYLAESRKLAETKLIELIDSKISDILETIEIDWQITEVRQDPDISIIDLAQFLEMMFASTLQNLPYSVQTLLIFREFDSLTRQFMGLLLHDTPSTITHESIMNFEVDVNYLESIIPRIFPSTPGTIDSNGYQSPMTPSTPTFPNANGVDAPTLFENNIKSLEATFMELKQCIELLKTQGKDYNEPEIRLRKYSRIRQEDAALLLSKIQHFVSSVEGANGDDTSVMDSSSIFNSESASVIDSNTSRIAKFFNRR
Experiment: […]

B1: Exo84 (natural protein)
chain: MVEFSLKKARNNWKHVKKSASSPAKQKTPPSPAKPKQKTKKNPYSDLKDPATSYTLPTINARERSRVATSMQRRLSIHNTNYAPPTLDYSMPLPDMPNMIVPNDNVDSSHNNSSFTTENESVSSKGPSNSLNLSTADLSLNDSSYNKVPARSAMRNTVNPSGSNDPFNNSTSLRKMLANPHFNAKDFVHDKLGNASAITIDKFTSNLTDLSIQVQEEVKLNINKSYNEIMTVNNDLNVAMLELKRVRANINDLNEVLDQCTKIAEKRLQLQDQIDQERQGNFNNVESHSNSPALLPPLKAGQNGNLMRRDRSSVLILEKFWDTELDQLFKNVEGAQKFINSTKGRHILMNSANWMELNTTTGKPLQMVQIFILNDLVLIADKSRDKQNDFIVSQCYPLKDVTVTQEEFSTKRLLFKFSNSNSSLYECRDADECSRLLDVIRKAKDDLCDIFHVEEENSKRIRESFRYLQSTQQTPGRENNRSPNKNKRRSMGGSITPGRNVTGAMDQYLLQNLTLSMHSRPRSRDMSSTAQRLKFLDEGVEEIDIELARLRFESAVETLLDIESQLEDLSERISDEELMLLNLISLKIEQRREAISSKLSQSILSSNEIVHLKSGTENMIKLGLPEQALDLFLQNRSNFIQDLILQIGSVDNPTNYLTQLAVIRFQTIKKTVEDFQDIFKELGAKISSILVDWCSDEVDNHFKLIDKQLLNDEMLSPGSIKSSRKQIDGLKAVGLDFVYKLDEFIKKNSDKIR
- binding result: binds
